Test results reported in publication PMC4652344.

Target: sulfonylurea receptor 1 (Sur1) (mouse (endogenous in lumbar spinal cord))
Assay: FRET or BRET; immunoFRET on 7 um cryosections of lumbar spinal cord of pid-30 WT/EAE mice; custom anti-Sur1 and anti-Trpm4 primary antibodies, secondary antibodies conjugated with Cy3 or Cy5; control: omission of one of the two primary antibodies

sulfonylurea receptor 1 (Sur1) (mouse (endogenous in lumbar spinal cord)), sequence (B2RUS7 entry or part of it): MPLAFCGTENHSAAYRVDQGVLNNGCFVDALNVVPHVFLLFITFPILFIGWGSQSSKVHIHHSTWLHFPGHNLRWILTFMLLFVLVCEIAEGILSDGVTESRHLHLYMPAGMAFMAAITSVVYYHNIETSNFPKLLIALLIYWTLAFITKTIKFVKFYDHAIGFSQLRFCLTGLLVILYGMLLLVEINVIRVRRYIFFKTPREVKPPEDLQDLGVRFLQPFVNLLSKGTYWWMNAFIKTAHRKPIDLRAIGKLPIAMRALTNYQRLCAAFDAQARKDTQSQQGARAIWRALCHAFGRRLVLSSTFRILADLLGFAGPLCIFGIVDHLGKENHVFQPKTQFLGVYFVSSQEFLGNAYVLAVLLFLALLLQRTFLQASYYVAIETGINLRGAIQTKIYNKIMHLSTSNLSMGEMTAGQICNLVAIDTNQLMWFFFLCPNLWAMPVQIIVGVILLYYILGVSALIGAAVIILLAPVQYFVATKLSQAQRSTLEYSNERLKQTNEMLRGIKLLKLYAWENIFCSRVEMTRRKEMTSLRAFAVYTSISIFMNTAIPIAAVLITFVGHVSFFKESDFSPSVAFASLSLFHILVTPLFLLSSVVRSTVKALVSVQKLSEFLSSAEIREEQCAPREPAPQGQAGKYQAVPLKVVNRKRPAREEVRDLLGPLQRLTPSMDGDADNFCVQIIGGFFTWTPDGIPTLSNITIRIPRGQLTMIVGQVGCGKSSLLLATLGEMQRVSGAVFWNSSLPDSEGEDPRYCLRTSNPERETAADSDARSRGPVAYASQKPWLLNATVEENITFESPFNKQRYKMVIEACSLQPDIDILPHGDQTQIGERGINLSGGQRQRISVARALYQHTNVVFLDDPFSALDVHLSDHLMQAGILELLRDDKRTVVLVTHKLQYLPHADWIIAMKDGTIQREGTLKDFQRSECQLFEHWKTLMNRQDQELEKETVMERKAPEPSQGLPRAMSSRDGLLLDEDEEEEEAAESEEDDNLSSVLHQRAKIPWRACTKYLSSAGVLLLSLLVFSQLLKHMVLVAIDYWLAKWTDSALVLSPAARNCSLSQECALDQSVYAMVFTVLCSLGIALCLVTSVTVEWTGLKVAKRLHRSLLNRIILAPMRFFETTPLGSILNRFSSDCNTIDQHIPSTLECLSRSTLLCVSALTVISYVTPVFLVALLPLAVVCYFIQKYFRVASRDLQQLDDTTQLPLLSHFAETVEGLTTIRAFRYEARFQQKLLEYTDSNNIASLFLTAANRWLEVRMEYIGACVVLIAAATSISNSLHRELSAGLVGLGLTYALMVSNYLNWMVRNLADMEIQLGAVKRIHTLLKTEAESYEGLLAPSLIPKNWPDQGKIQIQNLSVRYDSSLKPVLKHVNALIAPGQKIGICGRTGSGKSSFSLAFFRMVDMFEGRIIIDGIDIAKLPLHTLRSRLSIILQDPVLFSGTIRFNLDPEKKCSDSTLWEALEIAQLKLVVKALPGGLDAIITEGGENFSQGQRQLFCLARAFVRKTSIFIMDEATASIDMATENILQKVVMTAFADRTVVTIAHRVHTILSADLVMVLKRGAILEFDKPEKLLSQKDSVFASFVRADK

FRET efficiency: 10 to 14%
Substance: transient receptor potential melastatin 4 (Trpm4) (from UniProt Q7TN37 1-1213) (natural protein)
